Source: patent publication US20110287023A1 (AstraZeneca / MedImmune, published 2011)

T1: activated HMG1 from LPS stimulated THP-1 cells (human, UniProt P09429 1-215)
T1 sequence (looked up): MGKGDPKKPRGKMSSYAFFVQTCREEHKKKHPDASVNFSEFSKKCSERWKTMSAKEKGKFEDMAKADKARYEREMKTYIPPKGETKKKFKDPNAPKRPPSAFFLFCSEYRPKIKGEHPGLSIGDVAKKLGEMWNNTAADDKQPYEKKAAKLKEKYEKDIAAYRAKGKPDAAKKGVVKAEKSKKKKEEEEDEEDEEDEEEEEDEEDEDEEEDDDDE

T2: HMG1 B Box peptide amino acids 91-169
T2 construct: also called HMG1 peptide 91-169
T2 peptide: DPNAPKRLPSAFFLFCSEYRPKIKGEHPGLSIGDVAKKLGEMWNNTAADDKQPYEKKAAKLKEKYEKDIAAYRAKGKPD

T3: HMG2 coated on ELISA plates (Bos taurus (Bovine), UniProt P40673 2-209)
T3 construct: also called HMGB2; HMBG2
T3 sequence: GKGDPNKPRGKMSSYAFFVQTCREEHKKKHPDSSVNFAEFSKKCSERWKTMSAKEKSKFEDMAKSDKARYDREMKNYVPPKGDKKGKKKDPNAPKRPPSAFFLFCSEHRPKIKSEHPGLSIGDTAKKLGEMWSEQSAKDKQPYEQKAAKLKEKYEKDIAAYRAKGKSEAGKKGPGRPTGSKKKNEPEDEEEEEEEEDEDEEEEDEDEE

B1: human anti-HMG1 antibody E11 (antibody, IgG1, V domains shown)
VH: EVQLLESGGGLVQPGGSLRLSCAASGFTFSRYQMNWVRQAPGKGLEWVSSISPSGGHTHYADSVKGRFTISRDNSKNTLYLQMNSLRAEDTAVYYCAKDGRQGKISTVDHWGQGTLVTVSS
VL: DIQMTQSPGTLSLSPGERATLSCRASQSVRSNFLAWYQQKPGQAPRLLIYGASRRASGIPDRFSGSGFGADFTLSISRLEPEDFAVYYCQQYGSSPNTFGQGSRVEIK
notes: full length IgG1 made from a human Fab phage clone
B2: human anti-HMG1 antibody G4 (antibody, IgG1, V domains shown)
VH: EVQLLESGGGLVQPGGSLRLSCAASGFTFSWYDMTWVRQAPGKGLEWVSSISPSGGYTKYADSVKGRFTISRDNSKNTLYLQMNSLRAEDTAVYYCTTEFYDYLDVWGKGTTVTVSS
VL: DIQMTQSPGTLSLSPGEGATLSCRASQSVSSTYLAWYQQKPGQAPRLLIYEASKRATGTPARFSGSGSGTDFTLSISSLEPEDFAVYYCQHRHNWPPQWTFGQGTKVEVK
notes: full length IgG1 made from a human Fab phage clone; also called ATCC PTA-6258
B3: human anti-HMG1 antibody S16 (antibody, IgG1, V domains shown)
VH: EVQLLESGGGLVQPGGSLRLSCAASGFTFSWYSMLWVRQAPGKGLEWVSYISPSGGFTNYADSVKGRFTISRDNSKNTLYLQMNSLRAEDTAVYYCARWDYNSGWYYDHWGQGTLVTVSS
VL: DIQMTQSPDTLSLSPGERATLSCRASQSVNSRNLAWYQQKPGQAPRLLIYGASTRATGIPDRFSGSVSGTEFTLTISSLQPDDFATYYCQQYNSYFTFGQGTKLEIK
notes: full length IgG1 made from a human Fab phage clone; also called ATCC PTA-6259
B4: human anti-HMG1 antibody S6 (antibody, V domains shown)
VH: EVQLLESGGGLVQPGGSLRLSCAASGFTFSWYDMSWVRQAPGKGLEWVSRISPSGGYTMYADSVKGRFTISRDNSKNTLYLQMNSLRAEDTAVYYCARLEVGATSGGTAFDIWGQGTMVTVSS
VL: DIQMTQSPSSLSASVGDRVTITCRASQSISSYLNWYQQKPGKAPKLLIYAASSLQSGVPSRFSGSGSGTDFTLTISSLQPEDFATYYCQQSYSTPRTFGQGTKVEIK
notes: full length IgG1 made from a human Fab phage clone; two paragraphs print 'S4' for the PTA-6143 deposit; also called ATCC PTA-6143

Assays:
[1] = target: T1, activated HMG1 from LPS stimulated …; experiment: cell-based or functional assay
[2] = target: T2, HMG1 B Box peptide amino acids 91-169; experiment: ELISA, HMG1 B Box peptide 91-169 coated at 10 ug/ml, antibody titrated, OD 450
Outline: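 Plates blocked with 4% milk/PBS, or biotinylated peptides captured on avidin wells after 1% BSA blocking (30 min RT). Human anti-HMG1 antibodies titrated or serially diluted from 10 μg/ml, detected with anti-human IgG-HRP and TMB substrate, absorbance at 450 nm.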

[3] = target: T3, HMG2 coated on ELISA plates; experiment: direct ELISA, HMGB2 coated at 5 ug/mL, OD 490
Procedure: Binding to HMG1 vs. HMG2: Ultra high-binding ELISA plates (ThermoLab systems, #3855) were coated with either 5 ug/mL of Calf thymus HMGB1 or HMBG2 diluted in 10 mM Phosphate buffered saline (PBS), pH 7.2 and incubate overnight at 4 degrees. The plates were washed twice with Ca and Mg free PBS and 100 microliters of anti-HMGB1 antibody diluted in 10 mM PBS, pH 7.2+1% bovine serum albumin (BSA) to a final concentration of 10 ug/mL was added to each well and the plates were incubated 1 hour at room temperature. The wells were washed three times with 100 μl of PBS, pH 7.2. HRP labeled goat-anti-human IgG Kappa-chain (KPL, #14-10-10) and goat-anti-human IgG Lambda-chain (KPL, #14-10-11) were diluted in 10 mM PBS+1% BSA 1:1000 and 100 μl were added to each well and incubated for 1 hour at room temperature. The wells were then washed three times with 100 μl of PBS, pH 7.2. OPD substrate (Pierce chemical company, #34006) was prepared following the manufacturers instructions and 100 μl of prepared substrate was added to each well and the plates incubated at room temperature in the dark for 20-30 minutes. The reaction was stopped with the addition of 100 μl of 2M H₂SO₄, and the plates read on a plate reader at a wavelength of 490 nm.

[4] = target: T2, HMG1 B Box peptide amino acids 91-169; experiment: ELISA, HMG1 B Box peptide 91-169 coated at 10 ug/ml, antibody titrated, anti-human IgG-HRP, OD 450
Procedure: The plate was then blocked with 4% milk powder dissolved in PBS at 37° C. for 1 hour. The blocking solution was removed and replaced with human anti-HMG1 antibodies at various concentrations (see FIGS. 5A-B). […] HRP activity was detected with Sureblue HRP substrate (KPL). Plates were read at 450 nm using a Kinetic Microplate Reader (Molecular Devices). […] After washing and blocking with 1% BSA in PBS, the biotinylated peptides were individually added into the avidin coated wells and incubated for 30 min at room temperature. The serial diluted antibody G4, S16 and S6 at the initial concentration at 10 μg/ml were then transferred into the wells followed by adding mouse anti human IgG-HRP conjugate (Pierce). Detection was accomplished by adding 50 μl of tetramethylbenzidine (TMB) substrate (KPL) and the absorbance was read at 450 nm.

[5] = target: T4, recombinant HMG1 produced in E. coli as a calmodulin binding protein (CBP) fusion (human); experiment: sandwich ELISA: antibody titrated and captured on anti-human IgG Fc, soluble recombinant HMG1 at 2 ug/ml, mouse anti-HMGB1 and anti-mouse IgG-HRP, OD 450
T4 construct: also called rHMG1; rHMGB1
Procedure: Sandwich ELISA (soluble HMG1): Immunoplates (EIA/RIA plate, High binding, Costar) were coated with anti human IgG Fc at 10 μg/ml in PBS (pH 7.2) and incubated at 4° C. overnight. The coating reagent was removed and the plates were rinsed briefly with PBS. The plates were then blocked with 4% milk for 1 hour at 37° C. and rinsed with PBS. The anti-HMG1 antibodies were diluted in 4% milk. For serial dilutions, the antibodies were used at a starting concentration of 20 μg/ml. The diluted anti-HMG1 antibodies were then added into plate and incubated for 1 hr at 37° C. The plate was then washed 10 times with PBST (PBS/0.1% tween 20) and incubate with antigen (HMGB1, 2 μg/ml; or 0.7 μg/ml for native HMGB1) in 4% milk and incubated at 37° C. for 1 h. The plate was then wash 10 times and incubated with mouse anti-HMGB1, 1 μg/ml in 4% milk at 37° C. for 1 h. The plate was washed 10 times and incubated with anti-mouse IgG-HRP at 1:1000 at 37° C. for 1 h. The plate was then washed and developed. HRP activity was detected with Sureblue HRP substrate (KPL). Plates were read at 450 nm using a Kinetic Microplate Reader (Molecular Devices).

Binder	IC50 nm IL-6 Native HMGB [1] [nM]	binding result [2]	binding result [3]	binding result [4]	EC50 (read off the curve) [5] [µg/mL]
B1	1.73	no binding (tested: 10 ug/ml (log 1.0))	–	–	–
B2	–	–	no binding (tested: 10 ug/mL (single concentration))	binds	–
B3	38.9	–	–	binds	~0.08
B4	–	no binding (tested: 10 ug/ml (log 1.0))	no binding (tested: 10 ug/mL (single concentration))	–	–
